This test concerns the target T1, BMP9 (UniProt Q9UK05 320-429).
T1 construct: Ligand injected over the captured receptor protein
T1 sequence (looked up): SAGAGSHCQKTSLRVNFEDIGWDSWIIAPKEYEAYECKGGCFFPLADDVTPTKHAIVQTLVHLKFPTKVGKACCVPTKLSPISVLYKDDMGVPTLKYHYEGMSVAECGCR
As to the kind of experiment: Biacore SPR; protein captured by anti-Fc antibody, ligand injected. The protocol:
These protein complexes were independently captured in the system using an anti-Fc antibody. Ligands were injected and allowed to flow over the captured receptor protein. Results are summarized in the table below, in which ligand off-rates (kd) most indicative of effective ligand traps are denoted by bold text.

For one molecule, Kd results are on record in US20200071382A1 (published 2020).

B1: ENG(26-346)-Fc:Fc monomeric complex (Fc fusion)
chain: ETVHCDLQPVGPERDEVTYTTSQVSKGCVAQAPNAILEVHVLFLEFPTGPSQLELTLQASKQNGTWPREVLLVLSVNSSVFLHLQALGIPLHLAYNSSLVTFQEPPGVNTTELPSFPKTQILEWAAERGPITSAAELNDPQSILLRLGQAQGSLSFCMLEASQDMGRTLEWRPRTPALVRGCHLEGVAGHKEAHILRVLPGHSAGPRTVTVKVELSCAPGDLDAVLILQGPPYVSWLIDANHNMQIWTTGEYSFKIFPEKNIRGFKLPDTPQGLLGEARMLNASIVASFVELPLASIVSLHASSCGGRLQTSPAPIQTTPPTGGGTHTCPPCPAPELLGGPSVFLFPPKPKDTLMISRTPEVTCVVVDVSHEDPEVKFNWYVDGVEVHNAKTKPREEQYNSTYRVVSVLTVLHQDWLNGKEYKCKVSNKALPAPIEKTISKAKGQPREPQVYTLPPSRKEMTKNQVSLTCLVKGFYPSDIAVEWESNGQPENNYKTTPPVLKSDGSFFLYSKLTVDKSRWQQGNVFSCSVMHEALHNHYTQKSLSLSPGK
By Kd is commonly meant the free concentration of one partner at which half of the binding sites on the other are occupied at equilibrium, for simple one-to-one binding. Turning to B1, the Kd is above 36 nM.
